Values of other authors in publication PMC5433096.

Target: PhoB (Escherichia coli) (UniProt P0AFJ5)
Sequence of UniProt P0AFJ5 (P0AFJ5 whole entry): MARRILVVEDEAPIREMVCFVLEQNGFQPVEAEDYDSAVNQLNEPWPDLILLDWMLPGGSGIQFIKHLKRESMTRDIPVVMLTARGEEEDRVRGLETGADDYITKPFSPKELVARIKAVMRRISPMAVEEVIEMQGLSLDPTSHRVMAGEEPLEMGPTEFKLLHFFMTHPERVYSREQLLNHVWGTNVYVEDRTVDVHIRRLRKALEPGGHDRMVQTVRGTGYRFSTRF

Kd: 3 µM
Substance: PhoR (from UniProt P08400)
